Data set [1] concerns the molecule itself. Nature of the data set: crystal structure; two crystal forms: P22(1)2(1) at 2.8 Å (two hexamers in the asymmetric unit) and P2(1)2(1)2(1) at 2.2 Å (one hexamer); PEG 8000 or PEG 10 000, 50 mM HEPES pH 7.1-7.3, 281 K.
Data set [2] concerns the molecule itself. Nature of the data set: SEC; purified variant, size by SEC; data not shown. A general note: SEC sorts molecules by how far they enter the pores of the column.

For orientation: stoichiometry N means a count of units in the complex or per binding partner.

Positions count from the first letter of the chain named.

B1: Atrazine chlorohydrolase (AtzA), wild type (enzyme, Pseudomonas sp. strain ADP)
chain: MQTLSIQHGTLVTMDQYRRVLGDSWVHVQDGRIVALGVHAESVPPPADRVIDARGKVVLPGFINAHTHVNQILLRGGPSHGRQFYDWLFNVVYPGQKAMRPEDVAVAVRLYCAEAVRSGITTINENADSAIYPGNIEAAMAVYGEVGVRVVYARMFFDRMDGRIQGYVDALKARSPQVELCSIMEETAVAKDRITALSDQYHGTAGGRISVWPAPATTTAVTVEGMRWAQAFARDRAVMWTLHMAESDHDERIHGMSPAEYMECYGLLDERLQVAHCVYFDRKDVRLLHRHNVKVASQVVSNAYLGSGVAPVPEMVERGMAVGIGTDNGNSNDSVNMIGDMKFMAHIHRAVHRDADVLTPEKILEMATIDGARSLGMDHEIGSIETGKRADLILLDLRHPQTTPHHHLAATIVFQAYGNEVDTVLIDGNVVMENRRLSFLPPERELAFLEEAQSRATAILQRANMVANPAWRSL
notes: Atrazine chlorohydrolase AtzA of Pseudomonas sp. strain ADP, wild-type atzA gene in the pCS150 expression vector; about 470 amino acids; one Fe2+ per monomer; hexamer is a trimer of dimers; also called wild-type protein; source: E. coli BL21 λDE3, purified (Ni-NTA, SEC, thrombin cleavage of the His tag, SEC)
For B1, the “stoichiometry N” value in data set [1] is 6.

B2: AtzA Ala170Thr, Met256Ile, Pro258Thr, Tyr261Ser variant (enzyme, Pseudomonas sp. strain ADP)
chain: B1 chain with A170T, M256I, P258T, Y261S
notes: synthetic gene (Life Technologies) subcloned into pCS150; The PDB entries hold the wild-type parent of the same vector, not this variant; also called AtzA variant; the variant; source: E. coli BL21 λDE3, purified (Ni-NTA, SEC, thrombin cleavage of the His tag, SEC)
For B2, the “stoichiometry N” value in data set [2] was 2.

For the origin of these results see article PMC4356373, “The structure of the hexameric atrazine chlorohydrolase AtzA” (Acta Crystallographica Section D: Biological Crystallography, 2015).
